Data from patent publication US20190352352A1.
“And” between values parts separate entries of the source, which are not always exact repeats. Equal entries are not always repeated.

Tests used:
[1] = target: TGase-polymerized intact casein (CN-TG); test: casein-specific ELISA kit
[2] = target: TG polymers of chymotryptic WPI hydrolysate (chymotryptic-WPIH-TG); test: β-lactoglobulin-specific competitive ELISA kit
[3] = target: TG polymers of thermolysin WPI hydrolysate (thermolysin-WPIH-TG); test: β-lactoglobulin-specific competitive ELISA kit
[4] = target: TGase-polymerized native WPI (WPI-TG); test: β-lactoglobulin-specific competitive ELISA kit
[5] = target: chymotryptic hydrolysate of WPI (chymotryptic-WPIH); test: β-lactoglobulin-specific competitive ELISA kit
[6] = target: repolymerized tryptic WPI hydrolysate (tryptic-WPIH-TG); test: β-lactoglobulin-specific competitive ELISA kit
[7] = target: thermolysin hydrolysate of WPI (thermolysin-WPIH); test: β-lactoglobulin-specific competitive ELISA kit
[8] = target: tryptic hydrolysate of WPI (tryptic-WPIH); test: β-lactoglobulin-specific competitive ELISA kit
[9] = target: native WPI digests (peptides released during simulated gastric and duodenal digestion of native WPI); test: β-lactoglobulin-specific competitive ELISA kit, time course of in vitro digestion
[10] = target: thermolysin-WPIH-TG polymer digest (peptides released during simulated gastric and duodenal digestion); test: as above

| immunoreactivity (% of casein control) (% of casein control) [1] | immunoreactivity (% of native WPI control) (% of native WPI control) [2] | immunoreactivity (% of native WPI control) (% of native WPI control) [3] | immunoreactivity (% of native WPI control) (% of native WPI control) [4] | immunoreactivity (% of native WPI control) (% of native WPI control) [5] | immunoreactivity (% of native WPI control) (% of native WPI control) [6] | immunoreactivity (% of native WPI control) (% of native WPI control) [7] | immunoreactivity (% of native WPI control) (% of native WPI control) [8] | immunoreactivity (%) [9] [%] | immunoreactivity (%) [10] | Substance |
| --- | --- | --- | --- | --- | --- | --- | --- | --- | --- | --- |
| 70 |  |  |  |  |  |  |  |  |  | antibody of the AgraQuant F.A.S.T Casein ELISA test kit (Romer Labs Inc.) |
|  | 44 | 6 | 78 | 83 | 29 to 31 | 18 | 29 | 5 to 20 | 5% and < 5% | antibody of the … β-lactoglobulin test kit (β-lactoglobulin-specific competitive ELISA kit, R-Biopharm AG) |
